The values below come from publication PMC2712734 (Nature structural & molecular biology, 2009).

First the molecules themselves.
T1: CHMP3 V48D, A64D (human, UniProt Q9Y3E7 1-222, V48D | A64D)
T1 sequence (looked up): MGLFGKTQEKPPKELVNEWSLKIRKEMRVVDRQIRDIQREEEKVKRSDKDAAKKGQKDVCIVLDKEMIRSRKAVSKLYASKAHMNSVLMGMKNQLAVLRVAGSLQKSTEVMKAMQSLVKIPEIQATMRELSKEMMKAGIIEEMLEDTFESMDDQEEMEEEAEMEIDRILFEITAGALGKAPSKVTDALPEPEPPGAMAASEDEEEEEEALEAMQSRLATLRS

T2: CHMP3 I168D, L169D (human, UniProt Q9Y3E7 1-222, I168D | L169D)
T2 sequence (looked up): T1 sequence (looked up) with D48V, D64A, I168D, L169D

T3: GST-CHMP3 V48D, A64D (human, UniProt Q9Y3E7 1-222, V48D | A64D)
T3 sequence (looked up): T1 sequence (looked up)

T4: GST-CHMP3 I168D, L169D (human, UniProt Q9Y3E7 1-222, I168D | L169D)
T4 sequence (looked up): T1 sequence (looked up) with D48V, D64A, I168D, L169D

T5: GST-CHMP3, wild type (human, UniProt Q9Y3E7 1-222)
T5 sequence (looked up): T1 sequence (looked up) with D48V, D64A

B1: CHMP2A, full length, pure recombinant (natural protein, human, UniProt O43633 1-222, looked up)
chain: MDLLFGRRKTPEELLRQNQRALNRAMRELDRERQKLETQEKKIIADIKKMAKQGQMDAVRIMAKDLVRTRRYVRKFVLMRANIQAVSLKIQTLKSNNSMAQAMKGVTKAMGTMNRQLKLPQIQKIMMEFERQAEIMDMKEEMMNDAIDDAMGDEEDEEESDAVVSQVLDELGLSLTDELSNLPSTGGSLSVAAGGKKAEAAASALADADADLEERLKNLRRD
B2: GST-CHMP3_(1-150) (domain or fragment, human, UniProt Q9Y3E7 1-150, looked up)
chain: MGLFGKTQEKPPKELVNEWSLKIRKEMRVVDRQIRDIQREEEKVKRSVKDAAKKGQKDVCIVLAKEMIRSRKAVSKLYASKAHMNSVLMGMKNQLAVLRVAGSLQKSTEVMKAMQSLVKIPEIQATMRELSKEMMKAGIIEEMLEDTFES
B3: CHMP3_(1-150) (domain or fragment, human, UniProt Q9Y3E7 1-150, looked up)
chain: B2 chain
B4: GST-IST1NTD, wild type (domain or fragment, human, UniProt P53990 1-189, looked up)
chain: MLGSGFKAERLRVNLRLVINRLKLLEKKKTELAQKARKEIADYLAAGKDERARIRVEHIIREDYLVEAMEILELYCDLLLARFGLIQSMKELDSGLAESVSTLIWAAPRLQSEVAELKIVADQLCAKYSKEYGKLCRTNQIGTVNDRLMHKLSVEAPPKILVERYLIEIAKNYNVPYEPDSVVMAEAPP
B5: IST1NTD (N-terminal domain of IST1, residues 1-189) (domain or fragment, human, UniProt P53990 1-189, looked up)
chain: B4 chain
B6: CHMP1B, pure recombinant (natural protein, human, UniProt Q7LBR1 1-199, looked up)
chain: MSNMEKHLFNLKFAAKELSRSAKKCDKEEKAEKAKIKKAIQKGNMEVARIHAENAIRQKNQAVNFLRMSARVDAVAARVQTAVTMGKVTKSMAGVVKSMDATLKTMNLEKISALMDKFEHQFETLDVQTQQMEDTMSSTTTLTTPQNQVDMLLQEMADEAGLDLNMELPQGQTGSVGTSVASAEQDELSQRLARLRDQV

For one data set, the target named is T1, CHMP3 V48D, A64D. Kind of data set: negative-stain transmission electron microscopy.
A further data set deals with T2, CHMP3 I168D, L169D. Put plainly: negative-stain transmission electron microscopy.
The next data set addresses T3, GST-CHMP3 V48D, A64D. Kind of data set: pull-down.
A further data set addresses T4, GST-CHMP3 I168D, L169D. Put plainly: pull-down.
In another data set the target is T5, GST-CHMP3, wild type. Kind of data set: pull-down.
Data set [1] deals with B1. Put plainly: pull-down.
Data set [2] concerns the target B1. Kind of data set: negative-stain transmission electron microscopy.
The target of the data set “CHMP1B, pure recombinant” is B6. Kind of data set: SPR. On the technique in general: Surface plasmon resonance follows binding to a sensor surface in real time, without labels.
Data set [3] deals with the molecule itself. Put plainly: light scattering at 330 nm + negative-stain transmission electron microscopy.
Data set [4] concerns the molecule itself. Kind of data set: negative-stain transmission electron microscopy.
Another data set deals with GST-IST1NTD E67A (human, UniProt P53990 1-189, E67A). Put plainly: SPR.
For the next data set, the target named is GST-IST1NTD E168R (human, UniProt P53990 1-189, E168R). Kind of data set: SPR.
Another data set has as its target GST-IST1NTD Y165A (human, UniProt P53990 1-189, Y165A). Put plainly: SPR.
The target of the next data set is GST-IST1NTD Y64D (human, UniProt P53990 1-189, Y64D). Kind of data set: SPR.

Where a chain is given by its changes, count along the chain named. A value given as a limit tells only on which side of the number the result lay.

On to B1, for which the binding result in the data set with CHMP3 V48D, A64D is recorded as “binds”; with CHMP3 I168D, L169D, “binds”; in the data set with GST-CHMP3 V48D, A64D it was “binds”; in the data set with GST-CHMP3 I168D, L169D, “binds”; in the data set with GST-CHMP3, wild type it was “binds”.

Regarding B2, the binding result in [1] was “binds”.

Turning to B3, the binding result in data set [2] is recorded as “binds”.

Consider B4, for which, in the data set with CHMP1B, pure recombinant, the equilibrium dissociation constant (Kd) amounted to 22 µM.

For the molecule B5, the binding result in data set [3] is “binds”.

Turning to B6, the binding result in data set [4] is “binds”. Besides, the “fold reduction of binding affinity against wild type IST1NTD” value was 6 fold with GST-IST1NTD E67A, greater than 8 fold with GST-IST1NTD E168R, greater than 8 fold in the data set with GST-IST1NTD Y165A and greater than 8 fold with GST-IST1NTD Y64D.

By Kd is commonly meant the equilibrium constant for the complex coming apart.
